Like-named read-outs stand apart in the source and are kept apart here.
What was measured:
[1] = target: T1, FL-hcGAS (human cyclic GMP-AMP synthase) (human, UniProt Q8N884 1-522); test: phase separation microscopy
[2] = target: T1, FL-hcGAS (human cyclic GMP-AMP synthase); test: phase separation microscopy; remark: listed apart in the source

T1 sequence (Q8N884 whole entry): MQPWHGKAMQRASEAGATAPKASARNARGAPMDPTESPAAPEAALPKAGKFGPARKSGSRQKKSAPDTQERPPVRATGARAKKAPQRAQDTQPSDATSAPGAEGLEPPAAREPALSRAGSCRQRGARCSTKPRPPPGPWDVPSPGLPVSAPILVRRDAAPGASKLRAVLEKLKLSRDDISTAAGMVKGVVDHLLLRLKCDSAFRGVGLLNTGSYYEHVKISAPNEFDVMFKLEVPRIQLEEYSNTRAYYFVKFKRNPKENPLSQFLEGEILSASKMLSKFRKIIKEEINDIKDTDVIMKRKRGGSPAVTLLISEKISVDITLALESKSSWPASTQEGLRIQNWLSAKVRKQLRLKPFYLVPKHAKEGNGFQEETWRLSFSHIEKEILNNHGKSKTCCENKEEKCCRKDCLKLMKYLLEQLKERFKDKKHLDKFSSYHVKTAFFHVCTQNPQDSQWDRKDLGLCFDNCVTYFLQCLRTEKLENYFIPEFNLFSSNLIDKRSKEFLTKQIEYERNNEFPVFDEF

B1: ISD (interferon stimulatory DNA, 45 bp) (dsDNA)
DNA 1: TACAGATCTACTAGTGATCTATGACTGATCTGTACATGATCTACA
DNA 2: TGTAGATCATGTACAGATCAGTCATAGATCACTAGTAGATCTGTA
B1: binds [1].

AGAGAGAGAGAGAGAGAGAGAGAGAGAGAGAGAGAGAGAGAGAGAGAG (ssDNA) [48 nt ssDNA (AG repeat)]: binds [2].

From doi:10.1101/2020.09.27.316166
